US20070184523A1 (Genentech, published 2007)

How the values were obtained:
[1] = target: T1, CH3 T366S:L368A:Y407V cavity mutant (human, UniProt P01857-1 224-330 = IgG part, T366S; L368A; Y407V); test: calorimetry of a 1:1 mixture of purified CH3 domains
T1 construct: domain: CH3; Isolated CH3 domain secreted from E. coli; Positions follow Eu numbering; also called phage-selected cavity mutant

CH3 Y407A cavity mutant = target: T2, CH3 Y407A cavity mutant (human, UniProt P01857-1 224-330 = IgG part, Y407A); test: calorimetry of a mixture of purified CH3 domains
T2 construct: domain: CH3; Isolated CH3 domain secreted from E. coli; Positions follow Eu numbering; also called designed cavity mutant

B1: CH3 T366W protuberance mutant (other, human, UniProt P01857-1 224-330, looked up, name in EU numbering)
chain: GQPREPQVYTLPPSRDELTKNQVSLWCLVKGFYPSDIAVEWESNGQPENNYKTTPPVLDSDGSFFLYSKLTVDKSRWQQGNVFSCSVMHEALHNHYTQKSLSLSPGK
notes: domain: CH3; Isolated CH3 domain secreted from E. coli (plasmid pAK19); Positions follow Eu numbering, not the UniProt entry
B1: binds [1]; binds (CH3 Y407A cavity mutant).
